# Test results: patent publication US12390491B2, “Compositions and methods for providing chemoprotective effects” (GTECH BIO LLC, priority 2020, dated 2025)
# B1: GCLM: Heterologous human glutamate-cysteine ligase modifier subunit (SEQ ID NO: 1) overexpressed in cells via lentiviral vector co-expressing GFP (protein)
# chain: MGTDSRAAKALLARARTLHLQTGNLLNWGRLRKKCPSTHSEELHDCIQKTLNEWSSQINPDLVREFPDVLECTVSHAVEKINPDEREEMKVSAKLFIVESNSSSSTRSAVDMACSVLGVAQLDSVIIASPPIEDGVNLSLEHLQPYWEELENLVQSKKIVAIGTSDLDKTQLEQLYQWAQVKPNSNQVNLASCCVMPPDLTAFAKQFDIQLLTHNDPKELLSEASFQEALQESIPDIQAHEWVPLWLLRYSVIVKSRGIIKSKGYILQAKRRGS
# Experiments:
# Type in all cases: cell-based
# CEM cells [1] = assay: GSH level by fluorometric assay, untransduced vs GCLM-transduced cells, pre- and post-busulfan exposure
# Protocol: (§1) Jurkat, CEM, and Tf-1a cell lines were transduced with a lentiviral vector that expresses GCLM and green fluorescent protein (GFP) genes. Chemoprotection experiments were performed by incubating untransduced or mixed populations of (20% transduced, 80% untransduced) cells with busulfan in concentrations ranging from 0 to 200 μg/ml for 1, 2 or 4 hours. Cells were then incubated in busulfan-free culture for 24, 48, 72 and 96 h. Area under the concentration-time curve (AUC) was estimated by using trapezoidal rule from different times and concentrations of incubation. Pre- and post-exposure GSH levels were measured with fluorometric assays. Cell survival and proliferation at different time-points were measured by Nucleocounter NC-200 and flow cytometry using PI and 7-AAD staining protocols. The chemoselection of protected GFP+ cells were evaluated by flow cytometry. Baseline GSH levels and GCLM expression were also measured in primary human HSPCs harvested from 3 different donors with fluorometric and RT-PCR assays.
# (§2) The Cells are incubated with busulfan (0, 1, 2, 4, 6, 8, 10, 20, 40, 60, 80, 100 and 200 μg/ml) in serum-free media (RPMI) for 1, 2 and 4 hours. The cells were then washed with ice-cold buffer (PBS+0.5% HSA+0.1% glucose). The washed cells were cultured in RPMI+20% FBS. 24, 48, 72, and 96 h time-point measurements were done.
# (§3) Jurkat, CEM, and TF-1a cell lines were transduced with a lentiviral vector that expresses GCLM and green fluorescent protein (GFP) genes (FIG. 2A). Chemoprotection experiments were performed by incubating untransduced or mixed populations of (20% transduced, 80% untransduced) cells with busulfan in concentrations ranging from low (2 to 10 ug/ml) to moderate and high (10 to 200 ug/ml) for 1 or 2 hours. Cells were then incubated and viable cell counts were documented in busulfan-free culture for the 24, 48, 72 and 96-hr timepoints (FIG. 2B). Pre- and post-transduction, and post-exposure GSH levels were measured with fluorometric assays by FACS analysis. Cell survival and proliferation were measured daily by Nucleocounter NC-200 and flow cytometry using PI and 7-AAD staining protocols. The chemo selection of protected GFP-positive cells were evaluated by flow cytometry.
# CEM cells [2] = assay: Chemoprotection experiment: busulfan exposure, then viable cell count and proliferation in busulfan-free culture; conditions: for expansion of viable transduced cells: CEM cells; for fold expansion in viable transduced cells: at 72 h
# Protocol: as §1, §2, §3
# [3] = system: Jurkat, CEM and TF-1a cells; assay: Cell survival and proliferation (Nucleocounter NC-200, flow cytometry with PI and 7-AAD)
# Protocol: as §1, with “RT-PCR assays. […]” for “RT-PCR assays.”
# (§4) Jurkat, CEM, and TF-1a cell lines were transduced with a lentiviral vector that expresses GCLM and green fluorescent protein (GFP) genes (FIG. 2A). […] Pre- and post-transduction, and post-exposure GSH levels were measured with fluorometric assays by FACS analysis. […] The chemo selection of protected GFP-positive cells were evaluated by flow cytometry.
# Jurkat cells = assay: GSH level by fluorometric assay, untransduced vs GCLM-transduced cells; conditions: lentiviral GCLM/GFP transduction
# Protocol: as §1, §4
# TF-1a cells = assay: as above; conditions: lentiviral GCLM/GFP transduction
# Protocol: as §1, §4
# CEM cells [4] = assay: Chemoselection of protected GFP+ cells by flow cytometry in mixed populations (20% transduced, 80% untransduced)
# Protocol: as §1, §2, §3
Molecule,GSH in untransduced cells after busulfan exposure (CEM cells [1]; untransduced cells),sensitivity of untransduced cells to busulfan exposure (CEM cells [2]; untransduced CEM cells compared with Jurkat and TF-1a),"survival of untransduced cells after busulfan (CEM cells [2]; untransduced CEM cells, higher doses (10 and 20 μg/ml), by 96 hours)","dependence of cell death and proliferation on busulfan exposure ([3]; all cell cultures, AUC estimated by trapezoidal rule)",GSH level change between untransduced and transduced cells (Jurkat cells),GSH level change between untransduced and transduced cells (TF-1a cells),"GSH level in transduced cells relative to untransduced cells after busulfan (CEM cells [1]; CEM cells, different dose and time, 24-hr post busulfan exposure)","GSH level change between untransduced and transduced cells (CEM cells [1]; CEM cells, lentiviral GCLM/GFP transduction)","GSH levels in transduced cells throughout the experiment (CEM cells [1]; transduced cells, after busulfan exposure)","expansion of viable transduced cells (CEM cells [2]; 10 μg/ml busulfan, by 96 hours)","expansion of viable transduced cells (CEM cells [2]; 20 μg/ml busulfan, by 96 hours)","protection (proliferation rate) against busulfan (CEM cells [2]; GCLM-transduced CEM cells, lower doses of busulfan)",fold expansion in viable transduced cells (CEM cells [2]; busulfan-exposed transduced cells),fold expansion in viable transduced cells (CEM cells [2]; untreated (no busulfan) transduced control),"purity of transduced CEM cells (CEM cells [4]; 72 h of culture after 10 ug/ml busulfan for 1 h, starting from 20%)","transduced cell population (CEM cells [4]; CEM cells, 10 or 20 μg/ml busulfan, 1-hr or 2-hr exposure, by 96 hours, from 20% initial)","viable transduced cell count (CEM cells [4]; CEM cells, 72 h of culture after 10 ug/ml busulfan for 1 h, starting from 30×10^3/ml)","transduced cells as share of the cultures (CEM cells [4]; busulfan doses higher than 10 ug/ml or exposure longer than 1 h, after 72 h)","transduced cell population (CEM cells [4]; moderate levels of busulfan exposure, in 72-96 h)","effect of GCLM overexpression on cell viability and proliferation ([3]; Jurkat, CEM and TF-1a cells, no busulfan)"
"CS(=O)(=O)OCCCCOS(C)(=O)=O [busulfan, reference compound]",depleted,most sensitive,all dead,AUC-dependent,,,,,,,,,,,,,,,,
B1,,,,,2.1 fold,1.9 fold,at least 3.5 fold,1.7 fold,remained stable,5 fold,3 fold,at least 3.5 fold,2.8 fold,3.2 fold,88%,100%,84000 mL⁻¹,100%,100%,no effect
